This is an account of results in article PMC5028025.

The target of test [1] is citrate synthase (UniProt P00889).
The target in test [2] is luciferase [luciferase: P08659].
Another test deals with malate dehydrogenase (UniProt P00346).
The target in test [3] is citrate synthase (UniProt P00889). This is another data set of the same source.
Test [4] deals with Synechococcus sp. phage S-ShM2 18 kDa small heat shock protein (HspSP-ShM2) (cyanophage S-ShM2 (Synechococcus sp. phage)). Kind of test: SEC; Superdex 200 Increase 10/300 GL, TEN buffer (50 mM Tris-HCl pH 8.0, 0.1 mM EDTA, 150 mM NaCl) without detergent, room temperature, 0.5 ml/min; HspSP-ShM2 alone at 30 and 60 uM (the ~200 kDa species only at 60 uM); masses from a standard curve.

Sequence of UniProt P00889 (P00889 28-464): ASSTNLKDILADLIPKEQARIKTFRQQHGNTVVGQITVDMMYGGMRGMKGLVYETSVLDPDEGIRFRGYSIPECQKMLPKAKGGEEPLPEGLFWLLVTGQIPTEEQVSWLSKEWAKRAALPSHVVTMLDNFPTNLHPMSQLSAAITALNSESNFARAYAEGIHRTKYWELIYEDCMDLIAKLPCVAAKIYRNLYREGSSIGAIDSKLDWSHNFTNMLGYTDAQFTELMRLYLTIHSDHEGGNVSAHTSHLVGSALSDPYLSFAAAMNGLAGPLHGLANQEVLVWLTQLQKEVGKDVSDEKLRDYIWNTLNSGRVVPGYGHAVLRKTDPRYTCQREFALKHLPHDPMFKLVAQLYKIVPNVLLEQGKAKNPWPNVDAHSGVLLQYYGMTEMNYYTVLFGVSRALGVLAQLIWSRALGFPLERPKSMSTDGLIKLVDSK
Sequence of UniProt P00346 (P00346 25-338): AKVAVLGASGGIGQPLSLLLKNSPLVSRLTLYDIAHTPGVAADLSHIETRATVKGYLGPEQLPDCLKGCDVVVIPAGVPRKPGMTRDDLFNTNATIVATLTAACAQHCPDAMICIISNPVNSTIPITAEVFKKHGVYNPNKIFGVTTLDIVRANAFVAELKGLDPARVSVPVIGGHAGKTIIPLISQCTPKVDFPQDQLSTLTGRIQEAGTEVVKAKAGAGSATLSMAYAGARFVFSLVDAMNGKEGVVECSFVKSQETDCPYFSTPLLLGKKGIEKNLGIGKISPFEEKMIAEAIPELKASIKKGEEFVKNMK

Broadly, the stoichiometry N is the number of molecules, sites or subunits per partner or assembly. Turning to “Synechococcus sp. phage S-ShM2 18 kDa small heat shock protein (HspSP-ShM2) (natural protein)”, in the test with citrate synthase [1], the percent of heat-induced aggregation of CS (light scattering at 320 nm, 90 min at 45°C, CS alone = 100%) at 5:1 and 10:1 HspSP-ShM2:CS (41.6 and 8.17%) amounted to 41.6%. Moreover, in test [2], the percent of heat-induced aggregation of Luc (light scattering at 320 nm, 30 min at 42°C, Luc alone = 100%) at 6:1 and 12:1 HspSP-ShM2:Luc (45.8 and 6.4%) amounted to 45.8%. The substance further had a percent of heat-induced aggregation of MDH (light scattering at 320 nm, 90 min at 45°C, MDH alone = 100%) at 6:1 and 12:1 HspSP-ShM2:MDH (26.9 and 6.5%) in the test with malate dehydrogenase of 26.9%. For the same substance, in the test with citrate synthase [3], the decrease of the ability to prevent heat-induced aggregation of CS in the presence of 0.23 mM Triton X-100, at 5:1 and 10:1 HspSP-ShM2:CS (20% and 12%) turned out to be 20%. The stoichiometry N in test [4] turned out to be 12.
